Data on 8 molecules can be found in publication PMC12493166, “The ClpA chaperone and the two adaptor proteins modulate the fate of the model substrate tagged with a SsrA-degron of Leptospira” (Biochemical Journal, 2025).

Assay [1] has as its target T1, LinClpA (Leptospira interrogans, UniProt Q8F4D7).
T1 construct: gene clpA; full length, 740 residues, C-terminal 6xHis tag (pET-23a), E. coli BL21 (DE3), Ni-NTA; monomer ~82 kDa, ~492 kDa oligomer with ATP
T1 sequence (Q8F4D7 19-758): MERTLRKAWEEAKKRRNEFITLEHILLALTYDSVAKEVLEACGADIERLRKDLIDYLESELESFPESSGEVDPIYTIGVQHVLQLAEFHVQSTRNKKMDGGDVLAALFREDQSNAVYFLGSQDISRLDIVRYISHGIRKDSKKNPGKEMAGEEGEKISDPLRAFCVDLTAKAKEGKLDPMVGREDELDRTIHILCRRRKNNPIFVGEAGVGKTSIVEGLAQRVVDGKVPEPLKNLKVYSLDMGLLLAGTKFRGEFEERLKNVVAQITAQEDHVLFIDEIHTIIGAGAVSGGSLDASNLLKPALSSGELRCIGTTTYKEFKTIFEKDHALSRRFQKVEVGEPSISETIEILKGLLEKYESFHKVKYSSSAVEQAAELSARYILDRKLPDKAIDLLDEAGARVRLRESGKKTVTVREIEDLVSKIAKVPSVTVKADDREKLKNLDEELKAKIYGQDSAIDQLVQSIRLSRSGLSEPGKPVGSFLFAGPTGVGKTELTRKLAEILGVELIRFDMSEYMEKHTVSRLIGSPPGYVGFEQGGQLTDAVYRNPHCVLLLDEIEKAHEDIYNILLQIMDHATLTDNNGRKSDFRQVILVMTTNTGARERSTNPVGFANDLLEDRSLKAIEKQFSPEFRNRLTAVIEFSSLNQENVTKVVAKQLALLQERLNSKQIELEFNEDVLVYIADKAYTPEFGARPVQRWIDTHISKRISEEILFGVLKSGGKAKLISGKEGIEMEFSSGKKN
Description: ANS fluorescence change on oligomerization. The settings on record: 2 mM nucleotide, 3 μM protein, 10 μM ANS, 8 mM MgCl2, pH 7.8; indirect, oligomerization read-out. The assay is classed as binding. On the procedure: ANS fluorescence change on oligomerization on LinClpA | pre-incubation of LinClpA with ADP, PolyP or ATP led to reductions in ANS fluorescence

The target of assay [2] is T1, LinClpA. Put plainly: ANS fluorescence change on oligomerization (also size-exclusion chromatography). It is filed as binding. The settings on record: 2 mM nucleotide, 3 μM protein, 10 μM ANS, 8 mM MgCl2, pH 7.8; indirect, oligomerization read-out.
The target of assay [3] is T1, LinClpA. Description: malachite green phosphate release. As to conditions: 8 mM Mg2+, pH 7.8, 37°C, 1 μM enzyme. It is filed as biochemical.
Assay [4] concerns the target T1, LinClpA. Put plainly: ANS fluorescence change on oligomerization. It is filed as binding. As to conditions: 2 mM nucleotide, 3 μM protein, 10 μM ANS, 8 mM MgCl2, pH 7.8; indirect, oligomerization read-out. This is another data set of the same source.
The target of assay [5] is ClpS (Escherichia coli) (UniProt P0A8Q6). As to conditions: cited from earlier work.
In assay [6] the target is LinClpS1 (Clp adaptor protein ClpS1 of Leptospira interrogans) (L. interrogans serovar Copenhageni strain Fiocruz L1-130).
Assay [7] concerns the target LinClpS2 (Clp adaptor protein ClpS2 of Leptospira interrogans) (L. interrogans serovar Copenhageni strain Fiocruz L1-130) (UniProt Q72RD1).
The target in assay [8] is LinClpA (ClpA ATPase chaperone of Leptospira interrogans) (L. interrogans serovar Copenhageni strain Fiocruz L1-130). Description: ANS dye-binding fluorescence; LinClpA (3 μM) pre-incubated with ATP, GTP, CTP, UTP, ADP or PolyP (2 mM) 20 minutes at 4°C, then ANS (10 μM); excitation 350 nm, emission 400-750 nm; less ANS fluorescence read as oligomerization.
Assay [9] has as its target LinClpP2 (ClpP2 isoform of the Clp protease of Leptospira interrogans) (L. interrogans) (UniProt Q72R01). Description: ELISA; LinClpP1, LinClpP2, LinClpS1 or LinClpS2 (1 μM/well) coated overnight at 4°C; blocked with 3% BSA in PBS; ATP-bound LinClpA or LinClpA^∆N (0–3 μM) overlaid 2 hours at 37°C; detected with mouse anti-LinClpA; Kd by Hill plot analysis. Background: In an ELISA, binding on a coated surface is turned into a signal by an enzyme label.

The target of assay [10] is LinClpP1 (ClpP1 isoform of the Clp protease of Leptospira interrogans) (L. interrogans) (UniProt Q72SG6). The assay is described as above.
The target in assay [11] is LinClpS1 (Clp adaptor protein ClpS1 of Leptospira interrogans) (L. interrogans serovar Copenhageni strain Fiocruz L1-130). The assay is described as above.
Assay [12] has as its target LinClpS2 (Clp adaptor protein ClpS2 of Leptospira interrogans) (L. interrogans serovar Copenhageni strain Fiocruz L1-130) (UniProt Q72RD1). The assay is described as above.
The target in assay [13] is LinClpS1 (Clp adaptor protein ClpS1 of Leptospira interrogans) (L. interrogans serovar Copenhageni strain Fiocruz L1-130). This is another data set of the same source.
Assay [14] concerns the target LinClpS2 (Clp adaptor protein ClpS2 of Leptospira interrogans) (L. interrogans serovar Copenhageni strain Fiocruz L1-130) (UniProt Q72RD1). This is another data set of the same source.

Sequence of LinClpS2 (Clp adaptor protein ClpS2 of Leptospira interrogans) (L. interrogans serovar Copenhageni strain Fiocruz L1-130) (Q72RD1 whole entry): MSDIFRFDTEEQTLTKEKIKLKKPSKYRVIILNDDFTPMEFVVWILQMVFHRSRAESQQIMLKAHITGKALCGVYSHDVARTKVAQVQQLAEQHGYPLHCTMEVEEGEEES
Sequence of ClpA (P0ABH9 whole entry): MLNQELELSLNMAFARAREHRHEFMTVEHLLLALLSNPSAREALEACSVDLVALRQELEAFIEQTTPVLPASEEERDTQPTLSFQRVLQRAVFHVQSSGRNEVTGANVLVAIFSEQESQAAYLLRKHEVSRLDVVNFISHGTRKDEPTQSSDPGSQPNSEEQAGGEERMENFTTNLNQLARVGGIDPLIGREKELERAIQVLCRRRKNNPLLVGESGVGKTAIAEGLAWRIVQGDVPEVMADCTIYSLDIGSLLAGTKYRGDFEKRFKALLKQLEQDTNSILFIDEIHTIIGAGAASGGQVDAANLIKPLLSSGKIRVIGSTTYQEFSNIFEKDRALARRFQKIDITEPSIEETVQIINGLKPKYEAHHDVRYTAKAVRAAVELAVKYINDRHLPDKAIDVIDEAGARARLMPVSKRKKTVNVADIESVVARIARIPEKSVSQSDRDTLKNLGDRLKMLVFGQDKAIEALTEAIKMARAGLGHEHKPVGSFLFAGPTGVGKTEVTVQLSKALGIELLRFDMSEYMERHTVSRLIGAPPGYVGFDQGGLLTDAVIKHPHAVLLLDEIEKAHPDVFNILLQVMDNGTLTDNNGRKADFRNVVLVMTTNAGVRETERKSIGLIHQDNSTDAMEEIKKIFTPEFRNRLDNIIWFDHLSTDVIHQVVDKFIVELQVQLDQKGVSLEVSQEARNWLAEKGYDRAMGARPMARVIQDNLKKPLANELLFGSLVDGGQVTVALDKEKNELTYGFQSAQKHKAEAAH

On to `Nc1ncnc2c1ncn2[C@@H]1O[C@H](COP(=O)(O)OP(=O)(O)O)[C@@H](O)[C@H]1O` [ADP], for which the “ANS fluorescence, % of pure LinClpA” value in assay [1] amounted to 65%.

Regarding `Nc1ncnc2c1ncn2[C@@H]1O[C@H](COP(=O)(O)OP(=O)(O)OP(=O)(O)O)[C@@H](O)[C@H]1O` [ATP], in [2], the “ANS fluorescence, % of pure LinClpA” value amounted to 50%. For the same molecule, in assay [3], the “malachite green phosphate release” value is given as “LinClpA primarily utilizes ATP as its substrate”.

Regarding `Nc1ccn([C@@H]2O[C@H](COP(=O)(O)OP(=O)(O)OP(=O)(O)O)[C@@H](O)[C@H]2O)c(=O)n1` [CTP], the “ANS fluorescence change on oligomerization” value (shortened to “ANS fluorescence change”) in assay [4] is “can interact with various nucleotides, including GTP, CTP and UTP, in addition to ATP”.

On to `Nc1nc2c(ncn2[C@@H]2O[C@H](COP(=O)(O)OP(=O)(O)OP(=O)(O)O)[C@@H](O)[C@H]2O)c(=O)[nH]1` [GTP], for which the “ANS fluorescence change” value in assay [4] was “can interact with various nucleotides, including GTP, CTP and UTP, in addition to ATP”.

For the molecule `O=c1ccn([C@@H]2O[C@H](COP(=O)(O)OP(=O)(O)OP(=O)(O)O)[C@@H](O)[C@H]2O)c(=O)[nH]1` [UTP], the “ANS fluorescence change” value in assay [4] was “can interact with various nucleotides, including GTP, CTP and UTP, in addition to ATP”.

The term Kd denotes a measure of binding affinity in units of concentration. With ClpA (from UniProt P0ABH9), in [5], the Kd was 330 nM.

“LinClpA (ClpA ATPase chaperone of Leptospira interrogans) (enzyme)” came in with an ATPase activity of LinClpA (1 μM, malachite green) with LinClpS1 1–10 μM; dose-dependent inhibition; percent reduction at 10 μM in [6] of 57 % reduction. Besides, the ATPase activity of LinClpA (1 μM, malachite green) with LinClpS2 1–10 μM; dose-dependent inhibition; percent reduction at 10 μM in assay [7] was 90 % reduction. Also, the ANS fluorescence intensity with ADP, percent of pure LinClpA in assay [8] came to 65%. In assay [8], this molecule returned an ANS fluorescence intensity with ATP, percent of pure LinClpA of 50%. Besides, the ANS fluorescence intensity with PolyP, percent of pure LinClpA in assay [8] amounted to 55%. Moreover, the Kd in assay [9] came to 280 nM; in assay [10], 280 nM; in assay [11] it was 440 nM; in assay [12], 320 nM. This molecule also gave a degradation of eGFP-SsrA (2 μM) by the LinClpAP1P2 machinery (3 µM) after 60 minutes with LinClpS1 5, 10 and 15 µM, percent of the machinery without adaptor; value at 5 µM; total suppression at 15 µM (% of LinClpAP1P2 activity) in [13] of 53. The degradation of eGFP-SsrA (2 μM) by the LinClpAP1P2 machinery (3 µM) after 60 minutes with LinClpS2 5, 10 and 15 µM, percent of the machinery without adaptor; value at 5 µM; total suppression at 10 µM (% of LinClpAP1P2 activity) in assay [14] was determined as 39.

Regarding “LinClpA^∆N (N-domain-deleted variant of LinClpA) (domain or fragment)”, the dissociation constant Kd in assay [9] and in assay [10] was 280 nM throughout.
